US20190367627A1 (AGENUS, published 2019)

B1: pab1949 (antibody, human IgG1, kappa, V domains shown)
VH: EVQLVESGGGLVQPGGSLKLSCAASGFTFSGSAMHWVRQASGKGLEWVGRIRSKANSYATAYAASVKGRFTISRDDSKNTAYLQMNSLKTEDTAVYYCTSGIYDSSGYDYWGQGTLVTVSS
VL: not shown
notes: also called pab1949 (IgG1)
B2: pab2049 (antibody, human IgG1, V domains shown)
VH: EVQLVESGGGLVQPGGSLKLSCAASGFTFSGSAMHWVRQASGKGLEWVGRIRSKANSYATAYAASVKGRFTISRDDSKNTAYLQMNSLKTEDTAVYYCTSGIYDSSGYDYWGQGTLVTVSS
VL: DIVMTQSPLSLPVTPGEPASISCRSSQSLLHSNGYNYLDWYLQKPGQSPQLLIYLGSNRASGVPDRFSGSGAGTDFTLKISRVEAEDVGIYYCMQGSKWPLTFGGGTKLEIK
notes: its constant region is not tied to this antibody; also called pab2049 (IgG1)
B3: pab1949 N56Y (antibody, IgG1, V domains shown)
VH: EVQLVESGGGLVQPGGSLKLSCAASGFTFSGSAMHWVRQASGKGLEWVGRIRSKAYSYATAYAASVKGRFTISRDDSKNTAYLQMNSLKTEDTAVYYCTSGIYDSSGYDYWGQGTLVTVSS
VL: not shown
B4: pab1949 D109A (antibody, IgG1, V domains shown)
VH: EVQLVESGGGLVQPGGSLKLSCAASGFTFSGSAMHWVRQASGKGLEWVGRIRSKANSYATAYAASVKGRFTISRDDSKNTAYLQMNSLKTEDTAVYYCTSGIYDSSGYAYWGQGTLVTVSS
VL: not shown
B5: pab1949 Y103A (antibody, IgG1, V domains shown)
VH: EVQLVESGGGLVQPGGSLKLSCAASGFTFSGSAMHWVRQASGKGLEWVGRIRSKANSYATAYAASVKGRFTISRDDSKNTAYLQMNSLKTEDTAVYYCTSGIADSSGYDYWGQGTLVTVSS
VL: not shown
B6: pab1949 A96G/L97S (antibody, IgG1, V domains shown)
VH: EVQLVESGGGLVQPGGSLKLSCAASGFTFSGSAMHWVRQASGKGLEWVGRIRSKANSYATAYAASVKGRFTISRDDSKNTAYLQMNSLKTEDTAVYYCTSGIYDSSGYDYWGQGTLVTVSS
VL: not shown
notes: Only variable domains are tied to this antibody
B7: pab1949 Q98K (antibody, V domains shown)
VH: EVQLVESGGGLVQPGGSLKLSCAASGFTFSGSAMHWVRQASGKGLEWVGRIRSKANSYATAYAASVKGRFTISRDDSKNTAYLQMNSLKTEDTAVYYCTSGIYDSSGYDYWGQGTLVTVSS
VL: not shown
notes: as for B6
B8: pab1949 D104A (antibody, IgG1, V domains shown)
VH: EVQLVESGGGLVQPGGSLKLSCAASGFTFSGSAMHWVRQASGKGLEWVGRIRSKANSYATAYAASVKGRFTISRDDSKNTAYLQMNSLKTEDTAVYYCTSGIYASSGYDYWGQGTLVTVSS
VL: not shown
B9: pab1949 T99W (antibody, V domains shown)
VH: EVQLVESGGGLVQPGGSLKLSCAASGFTFSGSAMHWVRQASGKGLEWVGRIRSKANSYATAYAASVKGRFTISRDDSKNTAYLQMNSLKTEDTAVYYCTSGIYDSSGYDYWGQGTLVTVSS
VL: not shown
notes: as for B6
B10: pab1949 Y108A (antibody, IgG1, V domains shown)
VH: EVQLVESGGGLVQPGGSLKLSCAASGFTFSGSAMHWVRQASGKGLEWVGRIRSKANSYATAYAASVKGRFTISRDDSKNTAYLQMNSLKTEDTAVYYCTSGIYDSSGADYWGQGTLVTVSS
VL: not shown

Molecular target: T1, human OX40 (human, UniProt P43489 29-277)
T1 construct: Recombinantly expressed on transduced Jurkat cells; also called OX40 receptor; huOX40
T1 sequence: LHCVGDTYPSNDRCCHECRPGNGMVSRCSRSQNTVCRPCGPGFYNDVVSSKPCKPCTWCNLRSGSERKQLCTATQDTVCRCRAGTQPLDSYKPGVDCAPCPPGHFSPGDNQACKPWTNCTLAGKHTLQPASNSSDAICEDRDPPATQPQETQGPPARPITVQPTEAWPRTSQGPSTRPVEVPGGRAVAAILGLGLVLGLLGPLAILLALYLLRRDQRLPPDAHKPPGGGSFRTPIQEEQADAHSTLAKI
Assay: flow cytometry on Jurkat cells expressing human OX40
Source text: FIGS. 1A, 1B, 1C, 1D, 1E, IF, 1G, 1H, 1I, and 1J are a set of flow cytometry plots showing the binding of anti-OX40 antibodies or an isotype control antibody to Jurkat cells expressing human OX40. The anti-OX40 antibodies tested include pab1949, pab2049, heavy chain variants of pab1949 (pab1949 N56Y, pab1949 Y103A, pab1949 D104A, pab1949 Y108A, and pab1949 D109A), and light chain variants of pab1949 (pab1949 A96G/L97S, pab1949 Q98K, and pab1949 T99W). All the anti-OX40 antibodies tested are IgG₁ antibodies. MFI values are plotted over a range of antibody concentrations.
The binding characteristics of the anti-OX40 antibodies to cells expressing human OX40 were analyzed by flow cytometry. Briefly, Jurkat cells were transduced to recombinantly express human OX40. Stable clones were generated via single-cell sorting (FACS ARIA Fusion). OX40 expression was verified by flow cytometry using positive control antibodies. For binding analysis, OX40-expressing Jurkat cells were incubated with anti-OX40 antibodies (12-point dose titration, 10 μg/ml to 0.00005 μg/ml) for 30 minutes at 4° C. The samples were washed twice and then incubated with FITC-conjugated mouse anti-human kappa detection antibody (Life Technologies, Catalog number: HP6062) for 30 minutes at 4° C. The samples were then washed twice and analyzed using the LSRFortessa flow cytometer (BD Biosciences). The flow cytometry plots were analyzed using a combination of FACS DIVA and WEHI Weasel software.

Binding result, binds:
B1
B2
B3
B4
B5
B6
B7
B8
B9
B10
